Measured values from article doi:10.1101/2025.07.04.663224.

Tests used:
[1] = target: SmGdpP74 (cytosolic region of Streptococcus mutans GdpP, residues 74-654) (Streptococcus mutans strain NCTC10449); assay: cryo-EM structure
[2] = target: SmGdpP74 (cytosolic region of Streptococcus mutans GdpP, residues 74-654) (Streptococcus mutans strain NCTC10449); assay: cryo-EM structure; remark: listed apart in the source
[3] = target: SmGdpP74 (cytosolic region of Streptococcus mutans GdpP, residues 74-654) (Streptococcus mutans strain NCTC10449); assay: AUC
[4] = target: SmGdpP74 (cytosolic region of Streptococcus mutans GdpP, residues 74-654) (Streptococcus mutans strain NCTC10449); assay: SEC
[5] = target: SmGdpP74 (cytosolic region of Streptococcus mutans GdpP, residues 74-654) (Streptococcus mutans strain NCTC10449); assay: cryo-EM structure; remark: listed apart in the source

Measured: stoichiometry N

SmGdpP74 (cytosolic region of Streptococcus mutans GdpP, residues 74-654) (domain or fragment)
4: all assays above
